Four molecules from paper PMC2132798 (The Journal of Cell Biology, 1998) can be followed below.

B1: Myo5p (1,082–1,219) (domain or fragment, S. cerevisiae, UniProt Q04439 1082-1219, looked up)
chain: SSKPKEPMFEAAYDFPGSGSPSELPLKKGDVIYITREEPSGWSLGKLLDGSKEGWVPTAYMKPHSGNNNIPTPPQNRDVPKPVLNSVQHDNTSANVIPAAAQASLGDGLANALAARANKMRLESDDEEANEDEEEDDW
B2: Myo3p (1,118–1,271) (domain or fragment, S. cerevisiae, UniProt P36006 1118-1271, looked up)
chain: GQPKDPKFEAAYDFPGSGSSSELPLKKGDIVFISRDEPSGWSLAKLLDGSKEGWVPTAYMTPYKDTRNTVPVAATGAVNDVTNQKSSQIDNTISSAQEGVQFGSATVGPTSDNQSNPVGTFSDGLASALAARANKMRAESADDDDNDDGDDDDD
B3: Vrp1p (1–200) (domain or fragment, S. cerevisiae, UniProt P37370 1-200, looked up)
chain: MAGAPAPPPPPPPPALGGSAPKPAKSVMQGRDALLGDIRKGMKLKKAETNDRSAPIVGGGVVSSASGSSGTVSSKGPSMSAPPIPGMGAPQLGDILAGGIPKLKHINNNASTKPSPSASAPPIPGAVPSVAAPPIPNAPLSPAPAVPSIPSSSAPPIPDIPSSAAPPIPIVPSSPAPPLPLSGASAPKVPQNRPHMPSVR
B4: Vrp1p (195–817) (domain or fragment, S. cerevisiae, UniProt P37370 195-817, looked up)
chain: HMPSVRPAHRSHQRKSSNISLPSVSAPPLPSASLPTHVSNPPQAPPPPPTPTIGLDSKNIKPTDNAVSPPSSEVPAGGLPFLAEINARRSERGAVEGVSSTKIQTENHKSPSQPPLPSSAPPIPTSHAPPLPPTAPPPPSLPNVTSAPKKATSAPAPPPPPLPAAMSSASTNSVKATPVPPTLAPPLPNTTSVPPNKASSMPAPPPPPPPPPGAFSTSSALSASSIPLAPLPPPPPPSVATSVPSAPPPPPTLTTNKPSASSKQSKISSSSSSSAVTPGGPLPFLAEIQKKRDDRFVVGGDTGYTTQDKQEDVIGSSKDDNVRPSPISPSINPPKQSSQNGMSFLDEIESKLHKQTSSNAFNAPPPHTDAMAPPLPPSAPPPPITSLPTPTASGDDHTNDKSETVLGMKKAKAPALPGHVPPPPVPPVLSDDSKNNVPAASLLHDVLPSSNLEKPPSPPVAAAPPLPTFSAPSLPQQSVSTSIPSPPPVAPTLSVRTETESISKNPTKSPPPPPSPSTMDTGTSNSPSKNLKQRLFSTGGSTLQHKHNTHTNQPDVDVGRYTIGGSNSIVGAKSGNERIVIDDSRFKWTNVSQMPKPRPFQNKTKLYPSGKGSSVPLDLTLFT

Common to all, as to assay: two-hybrid
The experiment “Vrp1p (1–200)” has as its target B3.
The target in the experiment “Vrp1p (195–817)” is B4.
The experiment “Myo5p (1,082–1,219)” concerns the target B1.
The experiment “Myo3p (1,118–1,271)” concerns the target B2.

For B1, the “lacZ activity (Miller units)” value with Vrp1p (1–200) was 1060 ± 149 Miller units; with Vrp1p (195–817) it was 345 ± 7.3 Miller units.

As for B2, the results for the “lacZ activity (Miller units)” value in the experiment with Vrp1p (1–200) and with Vrp1p (195–817) were 1610 ± 264 Miller units and 96.3 ± 21.8 Miller units, respectively.

B3: the results for the “lacZ activity (Miller units)” value in the experiment with Myo5p (1,082–1,219) and with Myo3p (1,118–1,271) were 140 ± 2.3 Miller units and 254 ± 27.1 Miller units, respectively.

Regarding B4, the “lacZ activity (Miller units)” value came to 28.5 ± 2 Miller units in the experiment with Myo5p (1,082–1,219) and 74.5 ± 4.3 Miller units with Myo3p (1,118–1,271).
